Molecular target: T1, ELFN1-myc (mouse) (UniProt Q8C8T7)
T1 sequence: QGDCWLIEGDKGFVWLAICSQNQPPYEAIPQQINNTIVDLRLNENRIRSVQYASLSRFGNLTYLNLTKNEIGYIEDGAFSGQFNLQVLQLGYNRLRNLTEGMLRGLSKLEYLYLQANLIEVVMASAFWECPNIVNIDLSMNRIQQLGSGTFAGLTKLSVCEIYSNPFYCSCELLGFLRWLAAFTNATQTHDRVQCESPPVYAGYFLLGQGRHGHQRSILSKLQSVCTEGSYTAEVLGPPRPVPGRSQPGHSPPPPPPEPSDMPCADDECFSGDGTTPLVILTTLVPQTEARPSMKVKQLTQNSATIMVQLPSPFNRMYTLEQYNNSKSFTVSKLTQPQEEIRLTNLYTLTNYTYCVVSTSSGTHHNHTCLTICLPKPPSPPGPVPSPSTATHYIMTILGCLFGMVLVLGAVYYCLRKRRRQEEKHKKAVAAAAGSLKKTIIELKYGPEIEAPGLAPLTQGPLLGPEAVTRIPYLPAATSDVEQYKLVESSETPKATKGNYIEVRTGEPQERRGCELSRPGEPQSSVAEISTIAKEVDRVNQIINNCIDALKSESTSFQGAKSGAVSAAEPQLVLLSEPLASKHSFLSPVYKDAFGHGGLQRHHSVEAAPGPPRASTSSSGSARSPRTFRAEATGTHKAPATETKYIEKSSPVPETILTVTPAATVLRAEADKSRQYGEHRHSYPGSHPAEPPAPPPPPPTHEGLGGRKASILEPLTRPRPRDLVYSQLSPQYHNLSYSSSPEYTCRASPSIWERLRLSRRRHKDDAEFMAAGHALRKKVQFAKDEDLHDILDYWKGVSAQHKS

cell membrane enrichment of ELFN1Δ452-Venus (membrane against proximal cytosolic pixel intensity) with co-expression of ELFN1-myc (median 92.50% under control conditions): 129%
percentage of cells with membrane enrichment of ELFN1Δ452-Venus when co-expressed with ELFN1-myc (0.000 without ELFN1-myc); live-cell confocal microscopy, HEK293: 33.4%
B1: ELFN1Δ452-Venus (domain or fragment)
chain: QGDCWLIEGDKGFVWLAICSQNQPPYEAIPQQINNTIVDLRLNENRIRSVQYASLSRFGNLTYLNLTKNEIGYIEDGAFSGQFNLQVLQLGYNRLRNLTEGMLRGLSKLEYLYLQANLIEVVMASAFWECPNIVNIDLSMNRIQQLGSGTFAGLTKLSVCEIYSNPFYCSCELLGFLRWLAAFTNATQTHDRVQCESPPVYAGYFLLGQGRHGHQRSILSKLQSVCTEGSYTAEVLGPPRPVPGRSQPGHSPPPPPPEPSDMPCADDECFSGDGTTPLVILTTLVPQTEARPSMKVKQLTQNSATIMVQLPSPFNRMYTLEQYNNSKSFTVSKLTQPQEEIRLTNLYTLTNYTYCVVSTSSGTHHNHTCLTICLPKPPSPPGPVPSPSTATHYIMTILGCLFGMVLVLGAVYYCLRKRRRQEEKHKK

Source: publication PMC11758950
